# Test results published in patent US20140087995A1 (published 2014).
# Read-outs that look alike come from different tables or passages of the source. Numbered stars: 1 amine (or outer) side, 2 acyl side, 3 side chain; on linkers, the order of the positions; unused ones are H or OH. Bridge positions count the residues as written; N and C are the ends. Square brackets hold non-standard residues; d marks the D form. Side chains are listed from the residue outwards. Ends that are not written are not given here. * marks the point of attachment. C20 diacid = O=C(O)CCCCCCCCCCCCCCCCCCC(=O)*; γGlu = O=C(O)[C@H](CCC(=O)[*:2])N[*:1]
# T1: human calcitonin receptor (human, UniProt P30988 25-474)
# T1 sequence (looked up): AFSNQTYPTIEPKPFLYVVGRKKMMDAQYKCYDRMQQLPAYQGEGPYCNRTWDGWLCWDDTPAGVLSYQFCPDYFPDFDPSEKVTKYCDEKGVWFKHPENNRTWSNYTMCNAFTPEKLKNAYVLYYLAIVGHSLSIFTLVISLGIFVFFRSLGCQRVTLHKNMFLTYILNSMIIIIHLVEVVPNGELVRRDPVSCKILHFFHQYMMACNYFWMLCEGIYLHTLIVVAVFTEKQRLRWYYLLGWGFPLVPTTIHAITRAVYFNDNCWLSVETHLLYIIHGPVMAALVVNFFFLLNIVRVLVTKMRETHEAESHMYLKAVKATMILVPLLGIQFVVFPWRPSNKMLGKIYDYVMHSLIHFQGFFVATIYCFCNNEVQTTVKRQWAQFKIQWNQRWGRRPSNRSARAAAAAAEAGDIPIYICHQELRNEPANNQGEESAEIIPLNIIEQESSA
# T2: human amylin receptor (amylin 3(a) receptor: human calcitonin receptor with RAMP-3) (human, UniProt P30988 25-474; O60896 24-148, limits assumed)
# T2 construct: whole, on cells; Whole cells in the luciferase assay (Assay II a); also called hAmylin-R; hAmylinR
# T2 sequence (looked up) 1: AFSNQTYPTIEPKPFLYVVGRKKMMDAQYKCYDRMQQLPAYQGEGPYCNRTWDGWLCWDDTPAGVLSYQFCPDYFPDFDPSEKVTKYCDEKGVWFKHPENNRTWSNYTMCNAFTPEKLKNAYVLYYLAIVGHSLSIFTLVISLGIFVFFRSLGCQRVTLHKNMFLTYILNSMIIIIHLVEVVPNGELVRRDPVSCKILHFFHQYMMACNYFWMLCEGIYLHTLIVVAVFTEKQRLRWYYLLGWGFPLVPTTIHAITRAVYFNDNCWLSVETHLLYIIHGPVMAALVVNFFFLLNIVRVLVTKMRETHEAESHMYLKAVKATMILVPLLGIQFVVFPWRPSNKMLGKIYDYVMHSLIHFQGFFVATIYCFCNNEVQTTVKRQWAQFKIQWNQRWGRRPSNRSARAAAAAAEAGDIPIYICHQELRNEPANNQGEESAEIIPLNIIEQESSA
# T2 sequence (looked up) 2: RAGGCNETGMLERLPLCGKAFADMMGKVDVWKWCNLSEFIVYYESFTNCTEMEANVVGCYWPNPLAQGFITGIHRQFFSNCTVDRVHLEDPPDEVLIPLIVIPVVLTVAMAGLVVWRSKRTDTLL
# T3: human calcitonin receptor (human, UniProt P30988 25-474)
# T3 sequence (looked up): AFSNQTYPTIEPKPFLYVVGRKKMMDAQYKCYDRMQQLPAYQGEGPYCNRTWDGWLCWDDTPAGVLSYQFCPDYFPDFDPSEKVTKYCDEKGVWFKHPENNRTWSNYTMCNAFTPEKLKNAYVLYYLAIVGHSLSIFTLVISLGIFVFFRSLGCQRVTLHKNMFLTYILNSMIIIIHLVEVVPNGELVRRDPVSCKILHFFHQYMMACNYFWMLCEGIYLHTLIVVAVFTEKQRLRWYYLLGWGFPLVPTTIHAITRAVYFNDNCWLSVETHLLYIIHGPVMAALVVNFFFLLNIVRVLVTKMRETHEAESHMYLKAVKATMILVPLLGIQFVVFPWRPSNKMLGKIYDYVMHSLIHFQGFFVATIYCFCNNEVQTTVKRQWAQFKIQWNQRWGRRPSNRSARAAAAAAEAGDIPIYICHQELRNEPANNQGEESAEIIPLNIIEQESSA
# T4: human amylin receptor (amylin 3(a) receptor: human calcitonin receptor with RAMP-3) (human, UniProt P30988 25-474; O60896 24-148, limits assumed)
# T4 sequence (looked up) 1: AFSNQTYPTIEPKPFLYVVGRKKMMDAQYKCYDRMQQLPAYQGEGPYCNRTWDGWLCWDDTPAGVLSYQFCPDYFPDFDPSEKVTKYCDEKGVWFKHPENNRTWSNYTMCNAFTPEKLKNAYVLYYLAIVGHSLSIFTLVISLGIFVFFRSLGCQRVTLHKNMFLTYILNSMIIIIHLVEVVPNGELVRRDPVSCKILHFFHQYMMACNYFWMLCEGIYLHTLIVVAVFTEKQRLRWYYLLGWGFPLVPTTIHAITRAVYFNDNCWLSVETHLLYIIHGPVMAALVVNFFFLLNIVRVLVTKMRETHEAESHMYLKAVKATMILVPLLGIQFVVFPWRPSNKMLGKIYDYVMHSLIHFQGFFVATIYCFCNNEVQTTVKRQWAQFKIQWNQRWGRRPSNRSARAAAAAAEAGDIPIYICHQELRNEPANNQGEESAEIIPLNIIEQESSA
# T4 sequence (looked up) 2: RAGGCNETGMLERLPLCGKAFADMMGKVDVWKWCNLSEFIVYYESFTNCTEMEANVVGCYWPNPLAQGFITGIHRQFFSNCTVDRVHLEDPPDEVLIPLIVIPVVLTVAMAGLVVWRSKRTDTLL
# Legend:
# [1] = biological target: T1, human calcitonin receptor; assay: cell-based or functional assay
# [2] = biological target: T2, human amylin receptor (amylin 3(a) …); assay: SPA competition binding on membranes of BHK cells with human calcitonin receptor + RAMP-3; displacement of 125I-rat amylin (Assay V)
# Summary of the method: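 Membranes from BHK Amylin 3(a)/CRE-luc cells (35 ng/μL final) were mixed with SPA beads and test compounds in 50 mM Hepes pH 7.4 with 1 mM CaCl2, 5 mM MgCl₂, 0.1% OA and 0.02% Tween20. Incubation ran 120 min at 25° C with shaking; IC₅₀ came from one-site competition fitting.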
# [3] = biological target: T3, human calcitonin receptor; assay: cell-based or functional assay; remark: listed apart in the source
# [4] = biological target: T4, human amylin receptor (amylin 3(a) …); assay: cell-based or functional assay
Binder,Ratio hCT/hAmylin funct. [1] [ratio],hCTR funct. EC50 (pM) [1] [pM],IC50 [2] [nM],hCTR funct. EC50 (pM) [3] [pM],Ratio hCT/hAmylin funct. [4],hAmylin-R funct. EC50 (pM) [4] [pM]
"K([γGlu-γGlu-C20 diacid])CNTATCATQRLADFLRHSSPNFGAIPSSTNVGPRTY-NH2 (disulfide 2-7; N-terminus assumed; SMILES CC[C@H](C)[C@H](NC(=O)[C@H](C)NC(=O)CNC(=O)[C@H](Cc1ccccc1)NC(=O)[C@H](CC(N)=O)NC(=O)[C@@H]1CCCN1C(=O)[C@H](CO)NC(=O)[C@H](CO)NC(=O)[C@H](Cc1c[nH]cn1)NC(=O)[C@H](CCCNC(=N)N)NC(=O)[C@H](CC(C)C)NC(=O)[C@H](Cc1ccccc1)NC(=O)[C@H](CC(=O)O)NC(=O)[C@H](C)NC(=O)[C@H](CC(C)C)NC(=O)[C@H](CCCNC(=N)N)NC(=O)[C@H](CCC(N)=O)NC(=O)[C@@H](NC(=O)[C@H](C)NC(=O)[C@@H]1CSSC[C@H](NC(=O)[C@@H](N)CCCCNC(=O)CC[C@H](NC(=O)CC[C@H](NC(=O)CCCCCCCCCCCCCCCCCCC(=O)O)C(=O)O)C(=O)O)C(=O)N[C@@H](CC(N)=O)C(=O)N[C@@H]([C@@H](C)O)C(=O)N[C@@H](C)C(=O)N[C@@H]([C@@H](C)O)C(=O)N1)[C@@H](C)O)C(=O)N1CCC[C@H]1C(=O)N[C@@H](CO)C(=O)N[C@@H](CO)C(=O)N[C@H](C(=O)N[C@@H](CC(N)=O)C(=O)N[C@H](C(=O)NCC(=O)N1CCC[C@H]1C(=O)N[C@@H](CCCNC(=N)N)C(=O)N[C@H](C(=O)N[C@@H](Cc1ccc(O)cc1)C(N)=O)[C@@H](C)O)C(C)C)[C@@H](C)O, also called compound 130)",44.9,7280,0.453,,,
K([γGlu-γGlu-C20 diacid])CNTATCATQRLA[dD]FLRHSSPNFGAIPSSTNVGSRTY-NH2 (disulfide 2-7; N-terminus assumed; SMILES CC[C@H](C)[C@H](NC(=O)[C@H](C)NC(=O)CNC(=O)[C@H](Cc1ccccc1)NC(=O)[C@H](CC(N)=O)NC(=O)[C@@H]1CCCN1C(=O)[C@H](CO)NC(=O)[C@H](CO)NC(=O)[C@H](Cc1c[nH]cn1)NC(=O)[C@H](CCCNC(=N)N)NC(=O)[C@H](CC(C)C)NC(=O)[C@H](Cc1ccccc1)NC(=O)[C@@H](CC(=O)O)NC(=O)[C@H](C)NC(=O)[C@H](CC(C)C)NC(=O)[C@H](CCCNC(=N)N)NC(=O)[C@H](CCC(N)=O)NC(=O)[C@@H](NC(=O)[C@H](C)NC(=O)[C@@H]1CSSC[C@H](NC(=O)[C@@H](N)CCCCNC(=O)CC[C@H](NC(=O)CC[C@H](NC(=O)CCCCCCCCCCCCCCCCCCC(=O)O)C(=O)O)C(=O)O)C(=O)N[C@@H](CC(N)=O)C(=O)N[C@@H]([C@@H](C)O)C(=O)N[C@@H](C)C(=O)N[C@@H]([C@@H](C)O)C(=O)N1)[C@@H](C)O)C(=O)N1CCC[C@H]1C(=O)N[C@@H](CO)C(=O)N[C@@H](CO)C(=O)N[C@H](C(=O)N[C@@H](CC(N)=O)C(=O)N[C@H](C(=O)NCC(=O)N[C@@H](CO)C(=O)N[C@@H](CCCNC(=N)N)C(=O)N[C@H](C(=O)N[C@@H](Cc1ccc(O)cc1)C(N)=O)[C@@H](C)O)C(C)C)[C@@H](C)O),,100000,0.365,,,
"K([γGlu-γGlu-C20 diacid])CNTATCATQRLAEFLRHSSPNFGAIPSSTNVGPRTY-NH2 (disulfide 2-7; N-terminus assumed; SMILES CC[C@H](C)[C@H](NC(=O)[C@H](C)NC(=O)CNC(=O)[C@H](Cc1ccccc1)NC(=O)[C@H](CC(N)=O)NC(=O)[C@@H]1CCCN1C(=O)[C@H](CO)NC(=O)[C@H](CO)NC(=O)[C@H](Cc1c[nH]cn1)NC(=O)[C@H](CCCNC(=N)N)NC(=O)[C@H](CC(C)C)NC(=O)[C@H](Cc1ccccc1)NC(=O)[C@H](CCC(=O)O)NC(=O)[C@H](C)NC(=O)[C@H](CC(C)C)NC(=O)[C@H](CCCNC(=N)N)NC(=O)[C@H](CCC(N)=O)NC(=O)[C@@H](NC(=O)[C@H](C)NC(=O)[C@@H]1CSSC[C@H](NC(=O)[C@@H](N)CCCCNC(=O)CC[C@H](NC(=O)CC[C@H](NC(=O)CCCCCCCCCCCCCCCCCCC(=O)O)C(=O)O)C(=O)O)C(=O)N[C@@H](CC(N)=O)C(=O)N[C@@H]([C@@H](C)O)C(=O)N[C@@H](C)C(=O)N[C@@H]([C@@H](C)O)C(=O)N1)[C@@H](C)O)C(=O)N1CCC[C@H]1C(=O)N[C@@H](CO)C(=O)N[C@@H](CO)C(=O)N[C@H](C(=O)N[C@@H](CC(N)=O)C(=O)N[C@H](C(=O)NCC(=O)N1CCC[C@H]1C(=O)N[C@@H](CCCNC(=N)N)C(=O)N[C@H](C(=O)N[C@@H](Cc1ccc(O)cc1)C(N)=O)[C@@H](C)O)C(C)C)[C@@H](C)O, also called compound 110)",29.3,8160,0.326,,,
"K([γGlu-γGlu-C20 diacid])CNTATCATQRLAEFLRHSSPNFGAIPSSTNVGSRTY-NH2 (disulfide 2-7; N-terminus assumed; SMILES CC[C@H](C)[C@H](NC(=O)[C@H](C)NC(=O)CNC(=O)[C@H](Cc1ccccc1)NC(=O)[C@H](CC(N)=O)NC(=O)[C@@H]1CCCN1C(=O)[C@H](CO)NC(=O)[C@H](CO)NC(=O)[C@H](Cc1c[nH]cn1)NC(=O)[C@H](CCCNC(=N)N)NC(=O)[C@H](CC(C)C)NC(=O)[C@H](Cc1ccccc1)NC(=O)[C@H](CCC(=O)O)NC(=O)[C@H](C)NC(=O)[C@H](CC(C)C)NC(=O)[C@H](CCCNC(=N)N)NC(=O)[C@H](CCC(N)=O)NC(=O)[C@@H](NC(=O)[C@H](C)NC(=O)[C@@H]1CSSC[C@H](NC(=O)[C@@H](N)CCCCNC(=O)CC[C@H](NC(=O)CC[C@H](NC(=O)CCCCCCCCCCCCCCCCCCC(=O)O)C(=O)O)C(=O)O)C(=O)N[C@@H](CC(N)=O)C(=O)N[C@@H]([C@@H](C)O)C(=O)N[C@@H](C)C(=O)N[C@@H]([C@@H](C)O)C(=O)N1)[C@@H](C)O)C(=O)N1CCC[C@H]1C(=O)N[C@@H](CO)C(=O)N[C@@H](CO)C(=O)N[C@H](C(=O)N[C@@H](CC(N)=O)C(=O)N[C@H](C(=O)NCC(=O)N[C@@H](CO)C(=O)N[C@@H](CCCNC(=N)N)C(=O)N[C@H](C(=O)N[C@@H](Cc1ccc(O)cc1)C(N)=O)[C@@H](C)O)C(C)C)[C@@H](C)O, also called compound 89)",27.8,11200,1.16,,,
K([γGlu-γGlu-C20 diacid])CNTATCATQRLADFLRHSSPNFGAIPSSTNVGPETY-NH2 (disulfide 2-7 (inferred)),,,,843,5.3,159
K([γGlu-C20 diacid])CNTATCATQRLADFLRHSSPNFGAIPSSTNVGPRTY-NH2 (disulfide 2-7 (inferred)),,,,3640,,146
K([γGlu-C20 diacid])CNTATCATQRLAEFLRHSSPNFGAIPSSTNVGSHTY-NH2 (disulfide 2-7 (inferred)),,,,5580,,425
K([γGlu-C20 diacid])CNTATCATQRLAEFLRHSSPNFGAIPSSTNVGPHTY-NH2 (disulfide 2-7 (inferred)),,,,1450,,101
K([γGlu-γGlu-C20 diacid])CNTATCATQRLANFLRHSSPNFGAIPSSTPVGPRTY-NH2 (disulfide 2-7 (inferred)),,,,8660,,333
"K([γGlu-γGlu-C20 diacid])CNTATCATQRLADFLRHSSPNFGAIPSSTNVGPRTY-NH2 (disulfide 2-7 (inferred), also called compound 130)",,,,7280,,162
K([γGlu-γGlu-C20 diacid])CNTATCATQRLA[dD]FLRHSSPNFGAIPSSTNVGSRTY-NH2 (disulfide 2-7 (inferred)),,,,100000,,383
K([γGlu-γGlu-C20 diacid])CNTATCATQRLAEFLRHSSPNFGAIPSSTNVGPETP-NH2 (disulfide 2-7 (inferred)),,,,102,0.8,132
K([γGlu-γGlu-C20 diacid])CNTATCATQRLAEFLRHSSPNFGAIPSSTNVGPHTY-NH2 (disulfide 2-7 (inferred)),,,,2830,,172
